From patent US20190162720A1
Blank lines part the entries; values can stand above or below the substance they belong to.

Columns and labels:
[1] = target: C-Reactive protein (CRP, R&D Systems, Inc., 1707-CR-200, Mouse myeloma cell line) (UniProt P02741); test: SPR Biacore T200; CRP 1.0 µg/mL fed over antibody held through protein G (Example 6)
[2] = target: C-Reactive protein (CRP, R&D Systems, Inc., 1707-CR-200, Mouse myeloma cell line) (UniProt P02741); test: SPR Biacore T200; CRP 1.0 µg/mL fed over antibody held through protein A/G (6) (Example 7)
[3] = target: C-Reactive protein (CRP, R&D Systems, Inc., 1707-CR-200, Mouse myeloma cell line) (UniProt P02741); test: SPR Biacore T200; CRP 1.0 µg/mL fed over antibody held through protein A/G (8) (Example 8)
[4] = target: C-Reactive protein (CRP, R&D Systems, Inc., 1707-CR-200, Mouse myeloma cell line) (UniProt P02741); test: SPR Biacore T200; CRP 1.0 µg/mL fed over antibody held through protein A/G (6) (Example 9)
[5] = target: C-Reactive protein (CRP, R&D Systems, Inc., 1707-CR-200, Mouse myeloma cell line) (UniProt P02741); test: SPR Biacore T200; CRP 1.0 µg/mL fed over antibody held through protein A/G (6) (Example 10)
[6] = target: C-Reactive protein (CRP, R&D Systems, Inc., 1707-CR-200, Mouse myeloma cell line) (UniProt P02741); test: SPR Biacore T200; CRP 1.0 µg/mL fed over antibody held through protein A/G (8) (Example 11)
[7] = target: C-Reactive protein (CRP, R&D Systems, Inc., 1707-CR-200, Mouse myeloma cell line) (UniProt P02741); test: SPR Biacore T200; CRP 1.0 µg/mL fed over antibody held through protein A/G (6) (Example 12)
[8] = target: C-Reactive protein (CRP, R&D Systems, Inc., 1707-CR-200, Mouse myeloma cell line) (UniProt P02741); test: SPR Biacore T200; CRP 1.0 µg/mL fed over antibody held through protein A/G (6) (Example 13)
[9] = target: C-Reactive protein (CRP, R&D Systems, Inc., 1707-CR-200, Mouse myeloma cell line) (UniProt P02741); test: SPR Biacore T200; CRP 1.0 µg/mL fed over antibody held through protein A/G (6) (Example 14)
[10] = target: C-Reactive protein (CRP, R&D Systems, Inc., 1707-CR-200, Mouse myeloma cell line) (UniProt P02741); test: SPR Biacore T200; CRP 1.0 µg/mL fed over antibody held through protein A/G (6) (Example 15)
[11] = target: C-Reactive protein (CRP, R&D Systems, Inc., 1707-CR-200, Mouse myeloma cell line) (UniProt P02741); test: SPR Biacore T200; CRP 1.0 µg/mL fed over antibody held through protein A/G (6) (Example 16)
[12] = target: C-Reactive protein (CRP, R&D Systems, Inc., 1707-CR-200, Mouse myeloma cell line) (UniProt P02741); test: SPR Biacore T200; CRP 1.0 µg/mL fed over antibody held through protein A/G (6) (Example 17)
[13] = target: C-Reactive protein (CRP, R&D Systems, Inc., 1707-CR-200, Mouse myeloma cell line) (UniProt P02741); test: SPR Biacore T200; CRP 1.0 µg/mL fed over antibody coupled covalently (EDC/s-NHS) to the SAM; corrected with anti-IL6 reference interface (Comparative Example 2)
[14] = target: anti-biotin monoclonal antibody (Abcam plc., ab36406, Mouse monoclonal); test: SPR Biacore T200; protein G 40 µg/mL fed over anti-biotin monoclonal antibody on the chip (Example 6)
[15] = target: anti-CRP antibody (R&D Systems, Inc., Human C-Reactive protein Antibody, Monoclonal Mouse IgG2B, MAB17071-500); test: SPR Biacore T200; anti-CRP antibody 100 µg/mL fed over protein G held on the first antibody (Example 6)
[16] = target: anti-CRP antibody (R&D Systems, Inc., Human C-Reactive protein Antibody, Monoclonal Mouse IgG2B, MAB17071-500); test: SPR Biacore T200; anti-CRP antibody 100 µg/mL fed over protein A/G (8) held on the first antibody (Example 8)
[17] = target: anti-CRP antibody (R&D Systems, Inc., Human C-Reactive protein Antibody, Monoclonal Mouse IgG2B, MAB17071-500); test: SPR Biacore T200; anti-CRP antibody 100 µg/mL fed over protein A/G (8) held on anti-mPEG antibody (Example 11)
[18] = target: anti-mPEG monoclonal antibody (Abcam plc., ab51257, Mouse monoclonal, Anti-Polyethylene glycol antibody [PEG-B-47]); test: SPR Biacore T200; protein A/G (eight domains) 119 µg/mL fed over anti-mPEG antibody on the mPEG chip (Example 11)
[19] = target: anti-biotin monoclonal antibody (Abcam plc., ab36406, Mouse monoclonal); test: SPR Biacore T200; protein A/G (eight domains) 30 µg/mL fed over anti-biotin monoclonal antibody on the chip (Example 8)

Sequence of UniProt P02741 (P02741 19-224 limits assumed): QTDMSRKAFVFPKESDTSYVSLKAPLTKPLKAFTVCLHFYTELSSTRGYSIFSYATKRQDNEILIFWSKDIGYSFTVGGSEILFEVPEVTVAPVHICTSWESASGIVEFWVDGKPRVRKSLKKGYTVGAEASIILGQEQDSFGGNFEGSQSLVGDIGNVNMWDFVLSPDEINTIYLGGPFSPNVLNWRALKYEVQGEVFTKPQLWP

- Amount of antigen bound [1]: 513 RU
- Amount of antigen bound [2]: 422 RU
- Amount of antigen bound [3]: 745 RU
- Amount of antigen bound [4]: 408 RU
- Amount of antigen bound [5]: 663 RU
- Amount of antigen bound [6]: 536 RU
- Amount of antigen bound [7]: 508 RU
- Amount of antigen bound [8]: 560 RU
- Amount of antigen bound [9]: 630 RU
- Amount of antigen bound [10]: 519 RU
- Amount of antigen bound [11]: 514 RU
- Amount of antigen bound [12]: 481 RU
- Amount of antigen bound [13]: 284 RU
Substance: anti-CRP antibody (R&D Systems, Inc., Human C-Reactive protein Antibody, Monoclonal Mouse IgG2B, MAB17071-500)

- amount of the protein G immobilized [14]: 841 RU
- Amount of second antibody immobilized [15]: 2010 RU
Substance: protein G (BioVision Incorporated, 6501, recombinant protein G, three domains)

- Amount of second antibody immobilized [16]: 3460 RU
- Amount of second antibody immobilized [17]: 3210 RU
- amount of the protein A/G immobilized [18]: 820 RU
- amount of the protein A/G immobilized [19]: 868 RU
Substance: protein A/G (BioVision Incorporated, 6502, Recombinant Protein A/G from E. coli, eight domains)
